Experimental data taken from PMC5679380.

Target: D-tagatose 3-epimerase from Rhodobacter sphaeroides (Rhodobacter sphaeroides)
Assay: SEC; Superdex200 10/300 GL, 20 mM Tris-HCl pH 8.0, 100 mM NaCl, 1 mM dithiothreitol; 50 ug of purified RsDTE; six standard protein markers (6.5-158 kDa) for calibration

stoichiometry N: 4
Substance: D-tagatose 3-epimerase from Rhodobacter sphaeroides (enzyme)
